The record followed here is the Immune Epitope Database (IEDB).

Broadly, the Kd is a measure of binding affinity in units of concentration. A high value points to weaker binding. As a reminder, the IC50 is the midpoint of a concentration-inhibition curve.

One experiment has as its target HLA-C*01:02. As to the kind of experiment: IEDB peptide-MHC binding, purified MHC/direct/fluorescence; filed as Kd, often an IC50 or EC50 that approximates it; ≥ and ≤ were set here for values at or beyond the usual limits of such assays. The note with it: source organism: Homo sapiens.
In experiment [1] the target is HLA-A*24:02. As to the kind of experiment: IEDB peptide-MHC binding, cellular MHC/competitive/fluorescence; ≥ and ≤ were set here for values at or beyond the usual limits of such assays. The note with it: source organism: Human herpesvirus 5 strain AD169.
The next experiment addresses HLA-B*27:20. As to the kind of experiment: IEDB peptide-MHC binding, purified MHC/competitive/fluorescence; filed as Kd, often an IC50 or EC50 that approximates it; ≥ and ≤ were set here for values at or beyond the usual limits of such assays. The note with it: source organism: Rickettsia felis URRWXCal2.
The target of a further experiment is HLA-B*45:06. The experiment is described as above. The note with it: source organism: Rickettsia felis URRWXCal2.
The next experiment addresses HLA-B*46:01. Described as above. The note with it: source organism: Rickettsia felis URRWXCal2.
The target in the next experiment is HLA-A*32:15. Described as above. The note with it: source organism: Rickettsia felis URRWXCal2.
In another experiment the target is HLA-A*32:07. The description is as above. The note with it: source organism: Rickettsia felis URRWXCal2.
The target in another experiment is HLA-B*83:01. The experiment is described as above. The note with it: source organism: Rickettsia felis URRWXCal2.
Another experiment concerns the target HLA-B*15:02. The experiment is described as above. The note with it: source organism: Rickettsia felis URRWXCal2.
In a further experiment the target is HLA-B*15:42. The description is as above. The note with it: source organism: Rickettsia felis URRWXCal2.
The next experiment addresses HLA-B*40:13. The description is as above. The note with it: source organism: Rickettsia felis URRWXCal2.
Another experiment has as its target HLA-C*06:02. The experiment is described as above. The note with it: source organism: Rickettsia felis URRWXCal2.
The target in the next experiment is HLA-C*14:02. The description is as above. The note with it: source organism: Rickettsia felis URRWXCal2.
For another experiment, the target named is HLA-B*18:01. The experiment is described as follows: IEDB peptide-MHC binding, purified MHC/competitive/fluorescence; ≥ and ≤ were set here for values at or beyond the usual limits of such assays. The note with it: source organism: Homo sapiens.
The target in the next experiment is HLA-B*51:01. Described as above. The note with it: source organism: Homo sapiens.
For a further experiment, the target named is HLA-B*53:01. Described as above. The note with it: source organism: Homo sapiens.
In a further experiment the target is HLA-A*03:01. The description is as above. The note with it: source organism: Homo sapiens.
The target in a further experiment is HLA-A*29:02. Described as above. The note with it: source organism: Homo sapiens.
For a further experiment, the target named is HLA-B*44:03. The experiment is described as above. The note with it: source organism: Homo sapiens.
A further experiment has as its target HLA-A*02:01. The experiment is described as above. The note with it: source organism: Homo sapiens.
The next experiment concerns the target HLA-A*11:01. The description is as above. The note with it: source organism: Homo sapiens.
In the next experiment the target is HLA-A*25:01. The experiment is described as above. The note with it: source organism: Homo sapiens.
Experiment [2] has as its target HLA-A*24:02. The experiment is described as above. The note with it: source organism: Homo sapiens.
The next experiment has as its target HLA-B*40:02. The experiment is described as above. The note with it: source organism: Homo sapiens.
Experiment [3] concerns the target HLA-A*01:01. The description is as above. The note with it: source organism: Homo sapiens.
In another experiment the target is HLA-B*37:01. Described as above. The note with it: source organism: Homo sapiens.
The target of a further experiment is HLA-B*58:01. The experiment is described as above. The note with it: source organism: Homo sapiens.
In another experiment the target is HLA-B*07:02. The experiment is described as above. The note with it: source organism: Homo sapiens.
The target of the next experiment is HLA-A*31:01. The experiment is described as above. The note with it: source organism: Homo sapiens.
For the next experiment, the target named is HLA-A*68:02. The experiment is described as above. The note with it: source organism: Homo sapiens.
The next experiment deals with HLA-B*14:02. Described as above. The note with it: source organism: Homo sapiens.
The next experiment deals with HLA-B*35:01. The description is as above. The note with it: source organism: Homo sapiens.
In experiment [4] the target is HLA-B*08:01. The description is as above. The note with it: source organism: Homo sapiens.
Experiment [5] deals with HLA-A*01:01. As to the kind of experiment: IEDB peptide-MHC binding, purified MHC/competitive/radioactivity; ≥ and ≤ were set here for values at or beyond the usual limits of such assays. The note with it: source organism: Human papillomavirus 16.
For a further experiment, the target named is HLA-A*80:01. As to the kind of experiment: IEDB peptide-MHC binding, purified MHC/direct/fluorescence; filed as Kd, often an IC50 or EC50 that approximates it; ≥ and ≤ were set here for values at or beyond the usual limits of such assays. The note with it: source organism: Human immunodeficiency virus 1.
Another experiment concerns the target HLA-B*15:17. As to the kind of experiment: IEDB peptide-MHC binding, purified MHC/competitive/fluorescence; filed as Kd, often an IC50 or EC50 that approximates it; ≥ and ≤ were set here for values at or beyond the usual limits of such assays. The note with it: source organism: Human immunodeficiency virus 1.
The target in the next experiment is HLA-A*26:01. Described as above. The note with it: source organism: Human immunodeficiency virus 1.
For another experiment, the target named is HLA-B*38:01. The description is as above. The note with it: source organism: Human immunodeficiency virus 1.
Experiment [6] addresses HLA-A*01:01. Described as above. The note with it: source organism: Human immunodeficiency virus 1.
The next experiment deals with HLA-A*30:01. The experiment is described as above. The note with it: source organism: Human immunodeficiency virus 1.
For another experiment, the target named is HLA-B*57:01. Described as above. The note with it: source organism: Human immunodeficiency virus 1.
The next experiment deals with HLA-B*15:09. The experiment is described as above. The note with it: source organism: Human immunodeficiency virus 1.
The target of experiment [7] is HLA-B*08:01. Described as above. The note with it: source organism: Human immunodeficiency virus 1.

ELHDHGVSSL: the Kd with HLA-C*01:02 worked out at 3.9 nM.
As to FFFDIDLLL, the IC50 with HLA-A*24:02 [1] was at least 333000 nM.
With FMYALSRAF, the Kd with HLA-B*27:20 is at most 0.1 nM; with HLA-B*45:06, at least 5000 nM; with HLA-B*46:01, 6.6 nM; with HLA-A*32:15, 27.7 nM; with HLA-A*32:07 it was 493 nM; with HLA-B*83:01, at least 5000 nM. Also, the Kd with HLA-B*15:02 is 2.2 nM; with HLA-B*15:42 it was at least 5000 nM; in the experiment with HLA-B*40:13 it was 4.5 nM; with HLA-C*06:02, 64.5 nM; in the experiment with HLA-C*14:02, at most 0.1 nM.
For LPSCPTNFCIF, the IC50 in the experiment with HLA-B*18:01 is at least 20000 nM; in the experiment with HLA-B*51:01, at least 20000 nM; in the experiment with HLA-B*53:01, 851 nM; with HLA-A*03:01, at least 20000 nM; with HLA-A*29:02 it was at least 20000 nM; with HLA-B*44:03 it was at least 20000 nM. In addition, the IC50 with HLA-A*02:01 was at least 20000 nM; with HLA-A*11:01, at least 20000 nM; with HLA-A*25:01, at least 20000 nM; with HLA-A*24:02 [2], 1110 nM; with HLA-B*40:02, at least 20000 nM; in the experiment with HLA-A*01:01 [3], at least 20000 nM. Moreover, the IC50 with HLA-B*37:01 was at least 20000 nM; in the experiment with HLA-B*58:01, at least 20000 nM; with HLA-B*07:02 it was 562 nM; with HLA-A*31:01 it was at least 20000 nM; with HLA-A*68:02 it was at least 20000 nM; with HLA-B*14:02 it was at least 20000 nM. The IC50 in the experiment with HLA-B*35:01 is 47.7 nM; in the experiment with HLA-B*08:01 [4] it was at least 20000 nM.
QVDYYGLYY: the IC50 with HLA-A*01:01 [5] worked out at 18 nM.
Turning to GTEEIRSLF, the Kd with HLA-A*80:01 was at least 20000 nM; in the experiment with HLA-B*15:17, 223 nM; with HLA-A*26:01, at least 20000 nM; with HLA-B*38:01, at least 20000 nM; in the experiment with HLA-A*01:01 [6], at least 20000 nM; with HLA-A*30:01 it was 11000 nM. Also, the Kd with HLA-B*57:01 was 347 nM; with HLA-B*15:09, at least 20000 nM; in the experiment with HLA-B*08:01 [7] it was at least 20000 nM.
